Patent publication US20200123254A1 (LENTIGEN TECHNOLOGY, published 2020)

T1: CD19-Fc peptide (R&D, Minneapolis, Minn.) (UniProt P15391 20-291)
T1 construct: Bought reagent; also called recombinant CD19-Fc peptide; not shown: Fc part; bought reagent, detected with anti-human Fc F(ab')2-AF647
T1 sequence (looked up): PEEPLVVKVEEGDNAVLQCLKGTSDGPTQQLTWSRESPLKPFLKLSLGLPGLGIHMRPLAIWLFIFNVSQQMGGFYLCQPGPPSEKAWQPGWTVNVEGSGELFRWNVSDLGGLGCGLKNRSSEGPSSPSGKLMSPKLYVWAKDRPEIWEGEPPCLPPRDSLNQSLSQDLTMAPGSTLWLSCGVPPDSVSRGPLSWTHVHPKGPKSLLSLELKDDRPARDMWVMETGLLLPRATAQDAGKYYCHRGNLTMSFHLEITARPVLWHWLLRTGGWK

T2: recombinant human CD19 (labeled CD19) (human, UniProt P15391 20-291, limits assumed, fluorescent label, kind and site not stated)
T2 construct: The antigen titrated on yeast is only called 'labeled CD19'; also called fluorescently tagged antigen
T2 sequence (looked up): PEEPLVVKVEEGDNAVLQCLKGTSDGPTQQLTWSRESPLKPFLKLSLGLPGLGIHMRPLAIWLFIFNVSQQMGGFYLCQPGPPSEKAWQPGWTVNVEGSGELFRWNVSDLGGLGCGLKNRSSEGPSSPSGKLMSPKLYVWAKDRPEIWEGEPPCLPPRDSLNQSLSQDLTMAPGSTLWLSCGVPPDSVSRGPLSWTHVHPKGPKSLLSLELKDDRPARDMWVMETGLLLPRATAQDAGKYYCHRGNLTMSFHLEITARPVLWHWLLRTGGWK


Molecular target: T1, CD19-Fc peptide (R&D, Minneapolis, …)
Test: flow cytometry of CAR-transduced primary human T cells stained with CD19-Fc then anti Fc-AF647; untransduced T cells set as 0%
Procedure: FIG. 3 depicts anti-CD19 CAR surface expression in primary human T cells. CAR T cells redirected to CD19 tumor antigen via the use of ScFv domains (as listed in each panel) were generated by lentiviral transduction with CAR expression constructs. CART detection was performed by flow cytometry. T cells were washed twice in cold PBS-EDTA buffer and stained with CD19-Fc peptide followed by anti Fc-AF647 reagent. At least 20,000 cells were acquired for each analysis. Cells were gated based on forward scatter and side scatter, singlet discrimination, and 7AAD negativity so that only viable cells were analyzed. Data were acquired on MACSQuant 10 flow cytometer in the APC channel. UTD, un-transduced negative control cells. The marker in each panel identifies the CAR-expressing population, and are listed as percent of total transduced T cells analyzed.
For cell staining, half a million CAR T transduced cells were harvested from culture, washed two times in cold AutoMACS buffer supplemented with 0.5% bovine serum albumin (Miltenyi Biotec), and CAR surface expression detected by staining with CD19-Fc peptide (R&D, Minneapolis, Minn.) followed by anti Fc-AF647 conjugate (Jackson ImmunoResearch, West Grove, Pa.). Non-transduced cells were used as negative controls. Dead cells in all studies were excluded by 7AAD staining (BD Biosciences, San Jose, Calif.). Cells were washed twice and resuspended in 200 ul Staining Buffer before quantitative analysis by flow cytometry. Flow cytometric analysis was performed on a MACSQuant®10 Analyzer (Miltenyi Biotec), and data plots were generated using FlowJo software (Ashland, Oreg.).
T cells were activated on culture Day 0 with TransAct T cell reagent (active engagement of CD3 and CD28 antigens, Miltenyi Biotec, Inc.) in the presence of IL-2 as described in Materials and Methods. On culture Day 8-10, expression of anti-CD19 CARs on T cell surface was detected by CD19-Fc peptide followed by anti Fc-AF647 and analyzed by flow cytometry.

Row | CAR expression level (percent of transduced T cells stained by CD19-Fc) | Binder
1 | 46% | LTG2050 (LP-M19217-CD8 TM-41BB-CD3 zeta) CAR (other, Chimeric antigen receptor on the surface of transduced primary human T cells; also called ScFv1-CD8 TM-41BB-CD3 zeta) EVQLVQSGAEVKKPGASVKVSCKASGYTFTSYYMHWVRQAPGQGLEWMGIINPSGGSTSYAQKFQGRVTMTRDTSTSTVYMELSSLRSEDTAVYYCARSDRGITATDAFDIWGQGTMVTVSSGGGGSGGGGSGGGGSQSVLTQPPSVSVAPGQTAKITCGGSDIGNKNVHWYQQKPGQAPVLVVYDDYDRPSGIPERFSGSNSGDAATLTISTVEVGDEADYFCQVWDSSGDPYWVFGGGTQLTVLGAAATTTPAPRPPTPAPTIASQPLSLRPEACRPAAGGAVHTRGLDFACDIYIWAPLAGTCGVLLLSLVITLYCKRGRKKLLYIFKQPFMRPVQTTQEEDGCSCRFPEEEEGGCELRVKFSRSADAPAYQQGQNQLYNELNLGRREEYDVLDKRRGRDPEMGGKPRRKNPQEGLYNELQKDKMAEAYSEIGMKGERRRGKGHDGLYQGLSTATKDTYDALHMQALPPR
2 | 64% | LTG2065 (LP-M19217-1-CD8 TM-41BB-CD3 zeta) CAR (other, Chimeric antigen receptor on the surface of transduced primary human T cells; also called ScFv2-CD8TM-4-1BB-CD3 zeta) EVQLVQSGAEVKKPGASVKVSCKASGYTFTSYYMHWVRQAPGQGLEWMGLINPSGGSTSYAQKFQGRVTMTRDTSTSTVYMELSSLRSEDTAVYYCARSDRGITATDAFDIWGQGTMVTVSSGGGGSGGGGSGGGGSQSVLTQPPSVSVAPGRMAKITCGGSDIGNKNVHWYQQKPGQAPVLVVYDDYDRPSGIPERFSGSNSGDAATLTISTVEVGDEADYFCQVWDGSGDPYWMFGGGTQLTVLGAAATTTPAPRPPTPAPTIASQPLSLRPEACRPAAGGAVHTRGLDFACDIYIWAPLAGTCGVLLLSLVITLYCKRGRKKLLYIFKQPFMRPVQTTQEEDGCSCRFPEEEEGGCELRVKFSRSADAPAYQQGQNQLYNELNLGRREEYDVLDKRRGRDPEMGGKPRRKNPQEGLYNELQKDKMAEAYSEIGMKGERRRGKGHDGLYQGLSTATKDTYDALHMQALPPR
3 | 81% | LTG2067 (LP-M19217-7-CD8 TM-41BB-CD3 zeta) CAR (other, Chimeric antigen receptor on the surface of transduced primary human T cells; also called ScFv4-CD8TM-4-1BB-CD3 zeta) EVQLVQSGAEVNKPGASVKVSCKASGYTFTSYYMHWVRQAPGQGLEWMGMINPSGGSTSYAQKFQGRVTMTRDTSTSTVYMELSSLRSEDTAVYYCARSDRGITSTDAFDIWGQGTMVTVSSGGGGSGGGGSGGGGSQSVLTQPPSVSLAPGQTAKITCGGSDIGNKNVHWYQQKPGQAPVLVVYDDYNRPSGIPERFSGSNSGDSATLTISTVEVGDEADYFCQVWDGSGDPYWVFGGGTQLTVLGAAATTTPAPRPPTPAPTIASQPLSLRPEACRPAAGGAVHTRGLDFACDIYIWAPLAGTCGVLLLSLVITLYCKRGRKKLLYIFKQPFMRPVQTTQEEDGCSCRFPEEEEGGCELRVKFSRSADAPAYQQGQNQLYNELNLGRREEYDVLDKRRGRDPEMGGKPRRKNPQEGLYNELQKDKMAEAYSEIGMKGERRRGKGHDGLYQGLSTATKDTYDALHMQALPPR
4 | 21% | LTG2066 (LP-M19217-2-CD8 TM-41BB-CD3 zeta) CAR (other, Chimeric antigen receptor on the surface of transduced primary human T cells; also called ScFv3-CD8TM-4-1BB-CD3 zeta) EVQLVQSGAEVKKPGASVKVSCKASGYTFTSYYMHWVRQAPGQGFEWMGLINPSGSSTSYAQKFQGRVTMTRDTSTSTVYMELSNLRSEDTAVYYCARSDRGITATDAFDIWGQGTMVTVSSGGGGSGGGGSGGGGSQSVLTQPPSVPVAPGQTAKIICGGSDIGNKNVHWYQQKPGQAPVLVVYDDYDRPSGIPERFSGSNSGDAATLTISTVEVGDEADYFCQVWDGSGDPYWVFGGGTQLTVLGAAATTTPAPRPPTPAPTIASQPLSLRPEACRPAAGGAVHTRGLDFACDIYIWAPLAGTCGVLLLSLVITLYCKRGRKKLLYIFKQPFMRPVQTTQEEDGCSCRFPEEEEGGCELRVKFSRSADAPAYQQGQNQLYNELNLGRREEYDVLDKRRGRDPEMGGKPRRKNPQEGLYNELQKDKMAEAYSEIGMKGERRRGKGHDGLYQGLSTATKDTYDALHMQALPPR

Molecular target: T2, recombinant human CD19 (labeled CD19)
Test: flow cytometry of yeast-displayed scFv titrated with decreasing amounts of labeled CD19
Procedure: To increase the affinity of m19217, a yeast-display m19217 mutant scFv library was created by using error-prone PCR to create random point mutations in scFv gene sequences. After electroporation, the resulting mutant library was then grown overnight at 30° C. for 16 hours in SDCAA medium and then switched into SGCAA medium at 30° C. for another 16 hours. The mutant library was then sorted through MACS (immunomagentic column, Miltenyi Biotec) with CD19-Fc as the capture antigen to downsize the library and to increase the population of mutants that could bind to CD19-Fc. The strongest binders were then selected by double staining the pools with Anti-c-Myc-Alexa 488 and CD19-Fc/Anti-Hu-Fc and selecting for the binders that had the highest binding affinities as well as c-Myc expression levels. […] Binidng affinities were estimated by flow cytometry of yeast pools using decreasing amounts of labeled CD19.

Row | Binder | EC50
5 | human anti-CD19 ScFv binder M19217 (scFv, also called ScFv1; founder clone) scFv: EVQLVQSGAEVKKPGASVKVSCKASGYTFTSYYMHWVRQAPGQGLEWMGIINPSGGSTSYAQKFQGRVTMTRDTSTSTVYMELSSLRSEDTAVYYCARSDRGITATDAFDIWGQGTMVTVSSGGGGSGGGGSGGGGSQSVLTQPPSVSVAPGQTAKITCGGSDIGNKNVHWYQQKPGQAPVLVVYDDYDRPSGIPERFSGSNSGDAATLTISTVEVGDEADYFCQVWDSSGDPYWVFGGGTQLTVLG | 0.5 µg/mL
6 | human anti-CD19 ScFv binder M19217-29 (scFv, also called ScFv6) scFv: EVQLVQSGAEVKKPGASVKVSCKASGYTFTSYYMHWVRQAPGQGLEWMGMINPSGGSTSYAQKFQGRVTMTRDTSTSTVYMELSSLRSEDTAVYYCARSDRGITATDAFDIWGQGTMVTVSSGGGGSGGGGSGGGGSQSVLTQPPSVSVAPGQTAKITCGGSDIGNKNAHWYQQKPGQAPVLVVYDDYDRPSGISERFSGSNSGDAATLTISTVEVGDEADYFCQVWDGSGDPFWVFGGGTQLTVLG | < 0.01 µg/mL

Now from value to binder:

Row | EC50 | Binder
7 | < 0.01 µg/mL | human anti-CD19 ScFv binder M19217-23 (scFv, also called ScFv5) scFv: EVQLVQSGAEVKKPGASVKVSCKASGYTFTGYYMHWVRQAPGQGLEWIGLINPSGGSTSYEQKFQGRVAMTRDTSTSTVYMELSSLRSEDTAVYYCARSDRGITATDAFDIWGQGTMVTVSSGGGGSGGGGSGGGGSQSVLTQPPSVSVAPGQTAKITCGGSDIGDKNVHWYQQKPGQAPVLVVYDDYDRPSGIPERFSGSNSGDAATLTISTVEVGDEADYFCQVWDGIGDPYWVFGGGTQLTVLG
8 | < 0.01 µg/mL | human anti-CD19 ScFv binder M19217-40 (scFv, also called ScFv8) scFv: EVQLVQSGAEVKRPGASVKVSCKASGYTFTSYYMHWVRQAPGQGLVWMGLINPSGGSTSYAQKFQGRVTMTRDTSTSTVYMELSSLRSEDTAVYYCARSDRGITATDAFDIWGQGTMVTVSSGGGGSGGGGSGGGGSQSVLTQPPSVSVAPGQTAKTTCGGSDIGNKNVHWYQQKPGQAPVLVVYDDYDRPSGIPERFSGSNSGDAATLTISTVEVGDEADYVCQVWDGSGDPYWVFGGGTQLTVLG
9 | < 0.01 µg/mL | human anti-CD19 ScFv binder M19217-2 (scFv, also called ScFv3) scFv: EVQLVQSGAEVKKPGASVKVSCKASGYTFTSYYMHWVRQAPGQGFEWMGLINPSGSSTSYAQKFQGRVTMTRDTSTSTVYMELSNLRSEDTAVYYCARSDRGITATDAFDIWGQGTMVTVSSGGGGSGGGGSGGGGSQSVLTQPPSVPVAPGQTAKIICGGSDIGNKNVHWYQQKPGQAPVLVVYDDYDRPSGIPERFSGSNSGDAATLTISTVEVGDEADYFCQVWDGSGDPYWVFGGGTQLTVLG
10 | < 0.01 µg/mL | human anti-CD19 ScFv binder M19217-38 (scFv, also called ScFv7) scFv: EVQLVQSGAEVKRPGASVKVSCKASGYTFTSYYMHWVRQAPGRGLEWMGLINPSGGSTSYAQEFQGRVTMTRDMSTSTVYMELSSLRSEDTAVYYCARSDRGISATDAFDIWGQGTMVTVSSGGGGSGGGGSGGGGSQSVLTQPPSVSVAPGQMAKITCGGSDIGNKNVHWYQQKPGQAPVLVVYDDYNRPSGIPERFSGSNSGDAATLTISTVEVGDEADYFCQVWDGSGDPYWVFGGGTQLTDLG
11 | < 0.01 µg/mL | human anti-CD19 ScFv binder M19217-1 (scFv, also called ScFv2) scFv: EVQLVQSGAEVKKPGASVKVSCKASGYTFTSYYMHWVRQAPGQGLEWMGLINPSGGSTSYAQKFQGRVTMTRDTSTSTVYMELSSLRSEDTAVYYCARSDRGITATDAFDIWGQGTMVTVSSGGGGSGGGGSGGGGSQSVLTQPPSVSVAPGRMAKITCGGSDIGNKNVHWYQQKPGQAPVLVVYDDYDRPSGIPERFSGSNSGDAATLTISTVEVGDEADYFCQVWDGSGDPYWMFGGGTQLTVLG
12 | < 0.01 µg/mL | human anti-CD19 ScFv binder M19217-7 (scFv, also called ScFv4) scFv: EVQLVQSGAEVNKPGASVKVSCKASGYTFTSYYMHWVRQAPGQGLEWMGMINPSGGSTSYAQKFQGRVTMTRDTSTSTVYMELSSLRSEDTAVYYCARSDRGITSTDAFDIWGQGTMVTVSSGGGGSGGGGSGGGGSQSVLTQPPSVSLAPGQTAKITCGGSDIGNKNVHWYQQKPGQAPVLVVYDDYNRPSGIPERFSGSNSGDSATLTISTVEVGDEADYFCQVWDGSGDPYWVFGGGTQLTVLG
